# No end group written: not given here.
# Target: T1, Ab2B
# T1 construct: The variable domains are the same in both; also called antibody Ab2B
# Assay: Biacore; Ab2B captured on anti-human Fab chip, peptide as analyte
# Procedure: Anti-human Fab was ligated to Biacore chips at pH 4.5. […] TBPs were flowed through the chip as analytes at 30 μL/min. 10 mM glycine at pH 1.5 was used for regeneration of the chip. Conditions were optimized as needed.
# T1 sequence (heavy, as listed by the source, chain 1 of 2): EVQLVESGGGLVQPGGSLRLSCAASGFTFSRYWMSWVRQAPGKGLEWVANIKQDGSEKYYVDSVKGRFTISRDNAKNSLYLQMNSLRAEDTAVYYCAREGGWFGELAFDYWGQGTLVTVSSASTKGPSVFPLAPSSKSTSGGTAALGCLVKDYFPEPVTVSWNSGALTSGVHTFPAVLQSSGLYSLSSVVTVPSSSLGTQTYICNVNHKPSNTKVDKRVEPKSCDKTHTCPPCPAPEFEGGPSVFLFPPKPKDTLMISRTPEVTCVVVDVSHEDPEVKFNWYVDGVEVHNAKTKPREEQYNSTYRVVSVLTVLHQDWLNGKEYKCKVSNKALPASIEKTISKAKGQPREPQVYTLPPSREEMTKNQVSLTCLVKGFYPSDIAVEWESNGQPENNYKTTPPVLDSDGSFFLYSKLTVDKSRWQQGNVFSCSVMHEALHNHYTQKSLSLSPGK
# T1 sequence (light, as listed by the source, chain 2 of 2): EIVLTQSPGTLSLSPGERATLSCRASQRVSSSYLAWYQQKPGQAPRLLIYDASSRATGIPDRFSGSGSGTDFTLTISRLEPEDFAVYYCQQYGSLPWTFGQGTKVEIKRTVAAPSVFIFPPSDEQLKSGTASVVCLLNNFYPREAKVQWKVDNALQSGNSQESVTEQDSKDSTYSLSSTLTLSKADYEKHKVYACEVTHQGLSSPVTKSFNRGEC
binder,measurement,value
{NH2‑(PEG)12}-RSQSRSRYYRQRQRSRRRRRRS (also called TBPA) [SEQ ID NO: 151],binding result,no binding (tested: 50.0~0.8 nM analyte range)

# Reference: US20240189442A1 (ALLYGEN GROUP, published 2024)
